What all share (assay): cell_activity
For series [1], the system named is Sleeping Beauty SB11 transposase. Particulars: HEK293 transposition; 2.9 CHO, 2.7 HeLa, 1.0 (inactive) H1299; excision PCR positive.
For the next series, the system named is piggyBac transposase. Particulars: HEK293 transposition; 9.8 CHO, 14.5 HeLa, 5.7 H1299; excision PCR positive.
The test system of another series is Tol2 transposase. Particulars: HEK293 transposition; 3.3 CHO, 5.4 HeLa, 4.1 H1299.

Consider “Sleeping Beauty terminal repeat donor plasmid”, for which the activity (fold over control) in series [1] was 8.1.

Regarding “TGATTATCTTTCTAGGG (double strand) [piggyBac terminal repeat donor (printed repeat end)]”, in the series on piggyBac transposase, the activity (fold over control) came out at 115.

With Tol2 terminal repeat donor plasmid, the activity (fold over control) in the series on Tol2 transposase is 93.9.

(Values after US20110130444.)
